The experiment has as its target HA-tagged type II TGF-β receptor (TβRII) (human, UniProt P37173 23-567). Description: patch/FRAP.

HA-tagged type II TGF-β receptor (TβRII), sequence (P37173 23-567): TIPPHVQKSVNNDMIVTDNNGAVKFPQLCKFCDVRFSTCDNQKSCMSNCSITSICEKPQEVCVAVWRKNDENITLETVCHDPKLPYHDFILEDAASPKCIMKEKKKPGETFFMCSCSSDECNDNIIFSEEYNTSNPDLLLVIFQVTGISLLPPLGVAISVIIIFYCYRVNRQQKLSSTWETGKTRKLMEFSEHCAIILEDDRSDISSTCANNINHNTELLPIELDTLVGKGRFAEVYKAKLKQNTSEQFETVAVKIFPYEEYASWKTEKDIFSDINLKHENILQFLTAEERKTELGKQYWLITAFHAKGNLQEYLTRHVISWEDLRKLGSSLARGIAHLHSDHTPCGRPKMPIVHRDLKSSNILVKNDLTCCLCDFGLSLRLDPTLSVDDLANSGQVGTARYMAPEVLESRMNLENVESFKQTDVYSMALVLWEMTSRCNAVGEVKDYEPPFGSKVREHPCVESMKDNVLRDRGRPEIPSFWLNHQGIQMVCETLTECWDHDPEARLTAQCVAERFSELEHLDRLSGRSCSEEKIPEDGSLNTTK

B1: myc-tagged ALK5 (type I TGF-β receptor, TβRI) (receptor)
chain: LQCFCHLCTKDNFTCVTDGLCFVSVTETTDKVIHNSMCIAEIDLIPRDRPFVCAPSSKTGSVTTTYCCNQDHCNKIELPTTVKSSPGLGPVELAAVIAGPVCFVCISLMLMVYICHNRTVIHHRVPNEEDPSLDRPFISEGTTLKDLIYDMTTSGSGSGLPLLVQRTIARTIVLQESIGKGRFGEVWRGKWRGEEVAVKIFSSREERSWFREAEIYQTVMLRHENILGFIAADNKDNGTWTQLWLVSDYHEHGSLFDYLNRYTVTVEGMIKLALSTASGLAHLHMEIVGTQGKPAIAHRDLKSKNILVKKNGTCCIADLGLAVRHDSATDTIDIAPNHRVGTKRYMAPEVLDDSINMKHFESFKRADIYAMGLVFWEIARRCSIGGIHEDYQLPYYDLVPSDPSVEEMRKVVCEQKLRPNIPNRWQSCEALRVMAKIMRECWYANGAARLTALRIKKTLSQLSQQEGIKM
For the molecule B1, the “fold increase of complex formation with TGF-β1 against no ligand” value is about 2 fold.

For the origin of these results see PMC4551323 (Molecular Biology of the Cell, 2015).
